Experimental data published in patent US9872922B2, “Anti-EFNA4 antibody-drug conjugates” (PFIZER, INC., priority 2013, dated 2018).

T1: human Ephrin-A4 (Homo sapiens, UniProt P52798)
T1 construct: purchased
T1 sequence (P52798 26-170): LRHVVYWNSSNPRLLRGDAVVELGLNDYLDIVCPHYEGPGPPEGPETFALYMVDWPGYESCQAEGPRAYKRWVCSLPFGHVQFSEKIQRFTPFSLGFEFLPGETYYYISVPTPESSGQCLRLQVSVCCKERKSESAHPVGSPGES

T2: human EFNA4 (Homo sapiens, UniProt P52798)
T2 sequence (P52798 26-170): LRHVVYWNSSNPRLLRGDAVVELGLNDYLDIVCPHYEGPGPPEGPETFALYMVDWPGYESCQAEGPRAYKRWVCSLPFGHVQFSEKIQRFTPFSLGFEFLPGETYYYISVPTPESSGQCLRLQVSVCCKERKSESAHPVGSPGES


Tests used:
[1] = molecular target: T1, human Ephrin-A4; experiment: SPR steady state affinity of Eph receptors for Ephrin-A4; format: binding; details: for Kd: SPR BIAcore 2000, steady state affinity fit, captured Eph receptor, monomeric human Ephrin-A4 as analyte; for rank of affinity for Ephrin-A4 among nine Eph receptors: steady state affinity
Protocol: The properties of Ephrin-A4 binding to Eph receptors were further analyzed. Since anti-EFNA4 antibodies bind to Ephrin-A4 while the ligand is engaged with its Eph receptor, the affinity between these two macromolecules was determined. The affinities of commercially available Eph receptors and Ephrin-A4 were directly compared by surface plasmon resonance using a BIAcore 2000 (GE Healthcare) to determine the most relevant receptor. An anti-human antibody capture kit was used to immobilize recombinant Eph receptors on a CM5 biosensor chip. Prior to each antigen injection cycle, Eph receptors at the concentration of 2 μg/mL were captured on the surface with a contact time of 2 minutes and a flow rate of 5 μL/min. The captured antibody loading from baseline was constant at 150-260 response units. Following receptor capture and 1 min baseline, monomeric human Ephrin-A4 was flowed over the surface at concentrations of 400, 241, 145, 87, 53, 32, 19 and 12 nM for a 2 minute association phase followed by a 2 minute dissociation phase at a flow rate of 10 μL/min. Following each cycle, the anti-human capture surface was regenerated with 30 seconds contact time of 3M MgCl2 at 10 μL/min.
Biacore data was processed by initially calculating an average of the response at equilibrium (Req). The Req was then plotted versus concentration (M) and the steady state affinity fit was used to calculate the affinity and theoretical Rmax. In all cases, at least 5 different analyte concentrations were used to make this calculation. All data analysis steps were completed in BiaEvaluation Software 3.1 (GE Healthcare).

[2] = molecular target: T2, human EFNA4; experiment: Biacore affinity of anti-EFNA4 antibodies for EFNA4 antigen; format: binding; details: Biacore system
Excerpt: More particularly murine antibodies E5, E15, E22 and E47 were humanized using a computer-aided CDR-grafting method (Abysis Database, UCL Business Pic.) and standard molecular engineering techniques to generate humanized antibodies E5, E15, E22 and E47, hereinafter huE5, huE15, huE22 and huE47, respectively. The human framework regions of the variable regions were selected based on their highest sequence homology to the mouse framework sequence and its canonical structure. For the purposes of the analysis the assignment of amino acids to each of the CDR domains is in accordance with the Kabat et al. numbering.

| Molecule | Kd [1] | rank of affinity for Ephrin-A4 among nine Eph receptors [1] | affinity for EFNA4 antigen relative to murine counterpart [2] |
| --- | --- | --- | --- |
| huE5: humanized antibody E5, VH SEQ ID NO: 5, VL SEQ ID NO: 7 (antibody, V domains shown) VH: EVQLVESGGGLVQPGGSLRLSCAASGFTVTTYGVDWVRQAPGKGLEWLGVIWGGGSTNYNSALKSRFTISRDNSKNTLYLQMNSLRAEDTAVYYCASDWAYWGQGTLVTVSS VL: DIQMTQSPSSLSASVGDRVTITCRASQNVGTNVAWFQQKPGKAPKSLIHSASYRYSGVPSRFSGSGSGTDFTLTISSLQPEDFATYYCQQYKRYPYTFGGGTKLEIK | – | – | slightly lower affinity |
| EphA10: recombinant Eph receptor captured on biosensor chip (protein) EEVILLDSKASQAELGWTALPSNGWEEISGVDEHDRPIRTYQVCNVLEPNQDNWLQTGWISRGRGQRIFVELQFTLRDCSSIPGAAGTCKETFNVYYLETEADLGRGRPRLGGSRPRKIDTIAADESFTQGDLGERKMKLNTEVREIGPLSRRGFHLAFQDVGACVALVSVRVYYKQCRATVRGLATFPATAAESAFSTLVEVAGTCVAHSEGEPGSPPRMHCGADGEWLVPVGRCSCSAGFQERGDFCEACPPGFYKVSPRRPLCSPCPEHSRALENASTFCVCQDSYARSPTDPPSASCTRPPSAPRDLQYSLSRSPLVLRLRWLPPADSGGRSDVTYSLLCLRCGREGPAGACEPCGPRVAFLPRQAGLRERAATLLHLRPGARYTVRVAALNGVSGPAAAAGTTYAQVTVSTGPGAPWEEDEIRRDRVEPQSVSLSWREPIPAGAPGANDTEYEIRYYEKGQSEQTYSMVKTGAPTVTVTNLKPATRYVFQIRAASPGPSWEAQSFNPSIEVQTLGEAASGSRDQSPA | 431 nM | lowest affinity | – |
| EphA1 (protein) KEVTLMDTSKAQGELGWLLDPPKDGWSEQQQILNGTPLYMYQDCPMQGRRDTDHWLRSNWIYRGEEASRVHVELQFTVRDCKSFPGGAGPLGCKETFNLLYMESDQDVGIQLRRPLFQKVTTVAADQSFTIRDLVSGSVKLNVERCSLGRLTRRGLYLAFHNPGACVALVSVRVFYQRCPETLNGLAQFPDTLPGPAGLVEVAGTCLPHARASPRPSGAPRMHCSPDGEWLVPVGRCHCEPGYEEGGSGEACVACPSGSYRMDMDTPHCLTCPQQSTAESEGATICTCESGHYRAPGEGPQVACTGPPSAPRNLSFSASGTQLSLRWEPPADTGGRQDVRYSVRCSQCQGTAQDGGPCQPCGVGVHFSPGARGLTTPAVHVNGLEPYANYTFNVEAQNGVSGLGSSGHASTSVSISMGHAESLSGLSLRLVKKEPRQLELTWAGSRPRSPGANLTYELHVLNQDEERYQMVLEPRVLLTELQPDTTYIVRVRMLTPLGPGPFSPDHEFRTSPPVSRGLTGGE | 414 nM | – | – |
| EphB2 (protein) VEETLMDSTTATAELGWMVHPPSGWEEVSGYDENMNTIRTYQVCNVFESSQNNWLRTKFIRRRGAHRIHVEMKFSVRDCSSIPSVPGSCKETFNLYYYEADFDSATKTFPNWMENPWVKVDTIAADESFSQVDLGGRVMKINTEVRSFGPVSRSGFYLAFQDYGGCMSLIAVRVFYRKCPRIIQNGAIFQETLSGAESTSLVAARGSCIANAEEVDVPIKLYCNGDGEWLVPIGRCMCKAGFEAVENGTVCRGCPSGTFKANQGDEACTHCPINSRTTSEGATNCVCRNGYYRADLDPLDMPCTTIPSAPQAVISSVNETSLMLEWTPPRDSGGREDLVYNIICKSCGSGRGACTRCGDNVQYAPRQLGLTEPRIYISDLLAHTQYTFEIQAVNGVTDQSPFSPQFASVNITTNQAAPSAVSIMHQVSRTVDSITLSWSQPDQPNGVILDYELQYYEKELSEYNATAIKSPTNTVTVQGLKAGAIYVFQVRARTVAGYGRYSGKMYFQTMTEAEYQTSIQEKLPL | 135 nM | – | – |

More lines, now with the values ahead:

| Kd [1] | rank of affinity for Ephrin-A4 among nine Eph receptors [1] | affinity for EFNA4 antigen relative to murine counterpart [2] | Molecule |
| --- | --- | --- | --- |
| 31 nM | highest affinity | – | EphA2: recombinant Eph receptor captured on biosensor chip [reference compound] |
| 108 nM | – | – | EphB3 (protein) GCRALEETLMDTKWVTSELAWTSHPESGWEEVSGYDEAMNPIRTYQVCNVRESSQNNWLRTGFIWRRDVQRVYVELKFTVRDCNSIPNIPGSCKETFNLFYYEADSDVASASSPFWMENPYVKVDTIAPDESFSRLDAGRVNTKVRSFGPLSKAGFYLAFQDQGACMSLISVRAFYKKCASTTAGFALFPETLTGAEPTSLVIAPGTCIPNAVEVSVPLKLYCNGDGEWMVPVGACTCATGHEPAAKESQCRPCPPGSYKAKQGEGPCLPCPPNSRTTSPAASICTCHNNFYRADSDSADSACTTVPSPPRGVISNVNETSLILEWSEPRDLGGRDDLLYNVICKKCHGAGGASACSRCDDNVEFVPRQLGLTERRVHISHLLAHTRYTFEVQAVNGVSGKSPLPPRYAAVNITTNQAAPSEVPTLRLHSSSGSSLTLSWAPPERPNGVILDYEMKYFEKSEGIASTVTSQMNSVQLDGLRPDARYVVQVRARTVAGYGQYSRPAEFETTSERGSGAQQLQEQLPL |
| 86 nM | – | – | EphA7 (protein) QAAKEVLLLDSKAQQTELEWISSPPNGWEEISGLDENYTPIRTYQVCQVMEPNQNNWLRTNWISKGNAQRIFVELKFTLRDCNSLPGVLGTCKETFNLYYYETDYDTGRNIRENLYVKIDTIAADESFTQGDLGERKMKLNTEVREIGPLSKKGFYLAFQDVGACIALVSVKVYYKKCWSIIENLAIFPDTVTGSEFSSLVEVRGTCVSSAEEEAENAPRMHCSAEGEWLVPIGKCICKAGYQQKGDTCEPCGRGFYKSSSQDLQCSRCPTHSFSDKEGSSRCECEDGYYRAPSDPPYVACTRPPSAPQNLIFNINQTTVSLEWSPPADNGGRNDVTYRILCKRCSWEQGECVPCGSNIGYMPQQTGLEDNYVTVMDLLAHANYTFEVEAVNGVSDLSRSQRLFAAVSITTGQAAPSQVSGVMKERVLQRSVELSWQEPEHPNGVITEYEIKYYEKDQRERTYSTVKTKSTSASINNLKPGTVYVFQIRAFTAAGYGNYSPRLDVATLEEATGKMFEATAVSSEQNPV |
| 82 nM | – | – | EphA6 (protein) WPGDCSHVSNNQVVLLDTTTVLGELGWKTYPLNGWDAITEMDEHNRPIHTYQVCNVMEPNQNNWLRTNWISRDAAQKIYVEMKFTLRDCNSIPWVLGTCKETFNLFYMESDESHGIKFKPNQYTKIDTIAADESFTQMDLGDRILKLNTEIREVGPIERKGFYLAFQDIGACIALVSVRVFYKKCPFTVRNLAMFPDTIPRVDSSSLVEVRGSCVKSAEERDTPKLYCGADGDWLVPLGRCICSTGYEEIEGSCHACRPGFYKAFAGNTKCSKCPPHSLTYMEATSVCQCEKGYFRAEKDPPSMACTRPPSAPRNVVFNINETALILEWSPPSDTGGRKDLTYSVICKKCGLDTSQCEDCGGGLRFIPRHTGLINNSVIVLDFVSHVNYTFEIEAMNGVSELSFSPKPFTAITVTTDQDAPSLIGVVRKDWASQNSIALSWQAPAFSNGAILDYEIKYYEKEHEQLTYSSTRSKAPSVIITGLKPATKYVFHIRVRTATGYSGYSQKFEFETGDETSDMAAEQGQILV |
| 77 nM | – | – | EphA3 (protein) ELIPQPSNEVNLLDSKTIQGELGWISYPSHGWEEISGVDEHYTPIRTYQVCNVMDHSQNNWLRTNWVPRNSAQKIYVELKFTLRDCNSIPLVLGTCKETFNLYYMESDDDHGVKFREHQFTKIDTIAADESFTQMDLGDRILKLNTEIREVGPVNKKGFYLAFQDVGACVALVSVRVYFKKCPFTVKNLAMFPDTVPMDSQSLVEVRGSCVNNSKEEDPPRMYCSTEGEWLVPIGKCSCNAGYEERGFMCQACRPGFYKALDGNMKCAKCPPHSSTQEDGSMNCRCENNYFRADKDPPSMACTRPPSSPRNVISNINETSVILDWSWPLDTGGRKDVTFNIICKKCGWNIKQCEPCSPNVRFLPRQFGLTNTTVTVTDLLAHTNYTFEIDAVNGVSELSSPPRQFAAVSITTNQAAPSPVLTIKKDRTSRNSISLSWQEPEHPNGIILDYEVKYYEKQEQETSYTILRARGTNVTISSLKPDTIYVFQIRARTAAGYGTNSRKFEFETSPDSFSISGESSQ |
